Laboratory results as given in patent US20240002531A1 (ONO PHARMACEUTICAL, published 2024).

What was measured:
Assay in all cases: SPR Biacore, mAb on chip, peptide analyte, 1:1 fit
HER2 peptide p609-619 = target: T1, HER2 peptide p609-619 (human)
T1 peptide: SYMPIWKFPDE

HER2 peptide p610-622 = target: T2, HER2 peptide p610-622 (human)
T2 peptide: YMPIWKFPDEEGA

HER2 peptide p610-619 = target: T3, HER2 peptide p610-619 (human)
T3 peptide: YMPIWKFPDE

HER2 peptide p612-619 = target: T4, HER2 peptide p612-619 (human)
T4 peptide: PIWKFPDE

[1] = target: T5, D607A peptide (HER2 603-622 with D607A) (human)
T5 peptide: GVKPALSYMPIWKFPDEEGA

[2] = target: T6, G621A peptide (HER2 603-622 with G621A) (human)
T6 peptide: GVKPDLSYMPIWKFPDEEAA

[3] = target: T7, K615A peptide (HER2 603-622 with K615A) (human)
T7 peptide: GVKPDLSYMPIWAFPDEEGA

[4] = target: T8, I613A peptide (HER2 603-622 with I613A) (human)
T8 construct: also called 1613A
T8 peptide: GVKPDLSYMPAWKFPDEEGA

[5] = target: T9, L608A peptide (HER2 603-622 with L608A) (human)
T9 peptide: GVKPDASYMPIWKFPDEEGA

[6] = target: T10, D618A peptide (HER2 603-622 with D618A) (human)
T10 peptide: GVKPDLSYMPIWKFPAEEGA

[7] = target: T11, K605A peptide (HER2 603-622 with K605A) (human)
T11 peptide: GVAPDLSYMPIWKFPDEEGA

[8] = target: T12, E620A peptide (HER2 603-622 with E620A) (human)
T12 peptide: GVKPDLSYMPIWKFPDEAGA

[9] = target: T13, M611A peptide (HER2 603-622 with M611A) (human)
T13 peptide: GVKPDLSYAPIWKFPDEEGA

[10] = target: T14, HER2 peptide p603-622 (amino acids 603 to 622 of human HER2) (human)
T14 construct: Synthetic peptide; also called wild-type HER2 peptide
T14 peptide: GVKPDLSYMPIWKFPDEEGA

[11] = target: T15, P617A peptide (HER2 603-622 with P617A) (human)
T15 peptide: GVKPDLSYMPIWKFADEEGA

[12] = target: T16, V604A peptide (HER2 603-622 with V604A) (human)
T16 peptide: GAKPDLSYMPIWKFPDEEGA

[13] = target: T17, G603A peptide (HER2 603-622 with G603A) (human)
T17 peptide: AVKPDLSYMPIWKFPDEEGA

[14] = target: T18, F616A peptide (HER2 603-622 with F616A) (human)
T18 peptide: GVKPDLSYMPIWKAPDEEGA

[15] = target: T19, A622G peptide (HER2 603-622 with A622G) (human)
T19 peptide: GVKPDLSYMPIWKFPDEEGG

[16] = target: T20, S609A peptide (HER2 603-622 with S609A) (human)
T20 peptide: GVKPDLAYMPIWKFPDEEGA

[17] = target: T21, E619A peptide (HER2 603-622 with E619A) (human)
T21 peptide: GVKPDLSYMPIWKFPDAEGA

[18] = target: T22, P606A peptide (HER2 603-622 with P606A) (human)
T22 peptide: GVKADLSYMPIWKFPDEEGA

B1: H2Mab-214 antibody (antibody, V domains shown)
VH: QVTLKESGPGILQPSQTLSLTCSFSGFSLSTSGMGVSWIRQPSGKGLEWLAHIFWDDDKRYNPSLKSRLTISKDTSRNKVFLKITSVDTADTATYYCARRVVATDWYFDVWGAGTTVTVSS
VL: DIVLTQSPASLAVSLGQRATISCRASESVEYYGTTLMQWYQQKPGQPPKLLIYAASKVESGVPARFSGSGSGTDFSLNIHPVEEDDVAMYFCQQSRKVPLTFGAGTKLELKR
notes: Mouse monoclonal from a hybridoma (immunogen HER2ec made in LN229 cells); also called antibody of the present invention
Kd (HER2 peptide p609-619): 5.76 nM | koff (HER2 peptide p609-619): 0.00449 s⁻¹ | kon (HER2 peptide p609-619): 779000 M⁻¹ s⁻¹ | Kd (HER2 peptide p610-622): 38.8 nM | koff (HER2 peptide p610-622): 0.00598 s⁻¹ | kon (HER2 peptide p610-622): 154000 M⁻¹ s⁻¹ | Kd (HER2 peptide p610-619): 5.74 nM | koff (HER2 peptide p610-619): 0.0051 s⁻¹ | kon (HER2 peptide p610-619): 889000 M⁻¹ s⁻¹ | Kd (HER2 peptide p612-619): 22.2 nM | koff (HER2 peptide p612-619): 0.0235 s⁻¹ | kon (HER2 peptide p612-619): 1.06e+06 M⁻¹ s⁻¹

B2: H2Mab-250 antibody (antibody, V domains shown)
VH: EVQLVESGGGLVQPGGSLKLSCAASGFTFSNYGMSWVRQTPDRRLELVATINNNGGGTYYPDSVKGRFTISRDNAKNTLYLQMSSLKSEDTAMYYCTSPGLLWDAWGAGTTVTVSS
VL: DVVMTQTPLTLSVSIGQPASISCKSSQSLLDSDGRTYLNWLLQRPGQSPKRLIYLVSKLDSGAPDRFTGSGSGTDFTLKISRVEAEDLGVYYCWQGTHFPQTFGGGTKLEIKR
notes: as for B1
Kd [1]: 7.06 nM | koff [1]: 0.00052 s⁻¹ | kon [1]: 73600 M⁻¹ s⁻¹ | Kd [2]: 6.91 nM | koff [2]: 0.000399 s⁻¹ | kon [2]: 57800 M⁻¹ s⁻¹ | Kd [3]: 336 nM | koff [3]: 0.00963 s⁻¹ | kon [3]: 28700 M⁻¹ s⁻¹ | Kd [4]: 93.9 nM | koff [4]: 0.00828 s⁻¹ | kon [4]: 88400 M⁻¹ s⁻¹ | Kd [5]: 8.79 nM | koff [5]: 0.000431 s⁻¹ | kon [5]: 49100 M⁻¹ s⁻¹ | Kd [6]: 5.8 nM | koff [6]: 0.000432 s⁻¹ | kon [6]: 74500 M⁻¹ s⁻¹ | Kd [7]: 6.45 nM | koff [7]: 0.000346 s⁻¹ | kon [7]: 53600 M⁻¹ s⁻¹ | Kd [8]: 7.98 nM | koff [8]: 0.000455 s⁻¹ | kon [8]: 57100 M⁻¹ s⁻¹ | Kd [9]: 7.45 nM | koff [9]: 0.000445 s⁻¹ | kon [9]: 59700 M⁻¹ s⁻¹ | Kd [10]: 5.8 nM | koff [10]: 0.00037 s⁻¹ | kon [10]: 63900 M⁻¹ s⁻¹ | Kd [11]: 207 nM | koff [11]: 0.00914 s⁻¹ | kon [11]: 44100 M⁻¹ s⁻¹ | Kd [12]: 6.54 nM | koff [12]: 0.000399 s⁻¹ | kon [12]: 61000 M⁻¹ s⁻¹ | Kd [13]: 5.87 nM | koff [13]: 0.00043 s⁻¹ | kon [13]: 73300 M⁻¹ s⁻¹ | Kd [14]: 204 nM | koff [14]: 0.0108 s⁻¹ | kon [14]: 52800 M⁻¹ s⁻¹ | Kd [15]: 6.87 nM | koff [15]: 0.000453 s⁻¹ | kon [15]: 65900 M⁻¹ s⁻¹ | Kd [16]: 6.51 nM | koff [16]: 0.000394 s⁻¹ | kon [16]: 60600 M⁻¹ s⁻¹ | Kd [17]: 6.29 nM | koff [17]: 0.000465 s⁻¹ | kon [17]: 73900 M⁻¹ s⁻¹ | Kd [18]: 5.34 nM | koff [18]: 0.000393 s⁻¹ | kon [18]: 73600 M⁻¹ s⁻¹
